The text below walks through data of paper PMC4634933, “Development of a Novel PET Tracer [^18F]AlF-NOTA-C6 Targeting MMP2 for Tumor Imaging” (PLoS ONE, 2015).

For one series, the system named is SKOV3 tumors. Put plainly: MicroPET imaging of SKOV3 tumor-bearing mice. Particulars: 3.7 MBq via tail vein, non-blocked. The class given is in vivo. How it is done: Tumor-bearing mice were prepared via a subcutaneous injection of cancer cells into the forelegs of female (SKOV3) or male (PC3) BALB/c nude mice (B&K Universal, Shanghai, China) at 6 weeks of age (body weight 18–20 g). When tumors were palpable, i.e., approximately 5 mm in diameter, the mice were used for biodistribution and PET imaging experiments. PET imaging was performed on 4 mice bearing SKOV3 tumors using a microPET scanner; prior to the tracer injection, 2 mice were pre-blocked with unlabeled C6 at 10 mg/kg body weight, and 2 mice were not pre-blocked. Pre-blocked and non-blocked mice were then administered 3.7 MBq of [^18F]AlF-NOTA-C6, via tail vein injection. At 30, 60, and 120 min post-injection (PI), the mice were anesthetized with 1–2% isoflurane, positioned supine, immobilized, and imaged. The scan time was 10 min. The images were reconstructed using the ordered subset expectation maximization method; no attenuation correction was used.

The nature of a further series: in vivo. Also noted: species or system mice. Particulars: female, BALB/c nude, mouse, in vivo, iv, 0.74 MBq, total radioactivity. How it is done: (§1) Tumor-bearing mice were prepared via a subcutaneous injection of cancer cells into the forelegs of female (SKOV3) or male (PC3) BALB/c nude mice (B&K Universal, Shanghai, China) at 6 weeks of age (body weight 18–20 g). When tumors were palpable, i.e., approximately 5 mm in diameter, the mice were used for biodistribution and PET imaging experiments. Biodistribution experiments were performed via intravenous administration of [^18F]AlF-NOTA-C6 (0.74 MBq) to mice bearing SKOV3 tumors. At 30, 60, and 120 min PI (n = 4 mice/timepoint), the mice were euthanized and the biological samples of interest (e.g., blood, tumor, muscle, lung, spleen, kidney, liver, and small intestine) were harvested and weighed. In the blocking experiments, the mice (n = 4) were pre-blocked with unlabeled C6 at 10 mg/kg body weight prior to the tracer injection; at 60 min PI of [^18F]AlF-NOTA-C6, the mice were euthanized as previously described. The radioactivity values of the tissues and injection standards were subsequently measured in a γ-counter. The samples were corrected for radioactive decay to calculate the percent of injected dose (ID) to grams of tissue (%ID/g) relative to a standard that represented the injected dose.

Another series concerns SKOV3 tumor-bearing mice. Put plainly: in vivo. How it is done: as §1
Another series deals with PC3 tumors. Put plainly: MicroPET imaging of PC3 tumor-bearing mice. The class given is in vivo. Particulars: 3.7 MBq via tail vein, greatest radioactivity concentration at 30 min PI.
The format of series [1] is physicochemical. The procedure: To examine in vitro stability, approximately 400 μL of [^18F]AlF-NOTA-C6 and 2 mL of physiological saline at room temperature, or 2 mL of human serum at 37°C, were mixed and incubated for 4 h. During the incubation, 200-μL samples were collected at 2 and 4 h. The samples were subsequently analyzed by radio-HPLC.
In a further series the test system is gelatinase. Also noted: method as in PMID 19424760. Particulars: cited from earlier work.

Bridge positions count the residues as written; N and C are the ends. Peptide text beside a SMILES is read from it. * marks the point of attachment. NOTA = O=C(O)CN1CCN(CC(=O)O)CCN(CC(=O)*)CC1

On to `CC(C)C[C@@H]1NC(=O)[C@H]([C@@H](C)O)NC(=O)[C@H](Cc2ccccc2)NC(=O)CNC(=O)[C@H](Cc2c[nH]c3ccccc23)NC(=O)[C@H](Cc2c[nH]cn2)NC(=O)[C@H](C)NC(=O)[C@@H](NC(=O)CN2CCN(CC(=O)O)CCN(CC(=O)O)CC2)CCCCNC(=O)C[C@@H](C(N)=O)NC1=O` [[^18F]AlF-NOTA-C6] ({NOTA}-KAHWGFTLD-NH2; lactam 1-9), for which the “tumor radioactivity concentration in PET” value in the series with SKOV3 tumors (30 and 60 min PI) is reported as “visualized”. Also, the “uptake of the tumors in PET” value in the series with SKOV3 tumors (120 min PI) is listed as “negligible”. The tissue uptake at 0.5 h amounted to 0.44 ± 0.08 %ID/g in “in vivo” (Fat uptake); 0.47 ± 0.09 %ID/g in the series “in vivo” (Gut uptake); 7.14 ± 0.05 %ID/g in the series “in vivo” (Kidney uptake); 0.57 ± 0.15 %ID/g in the series “in vivo” (Muscle uptake); 0.35 ± 0.01 %ID/g in “in vivo” (Pancreas uptake); 0.5 ± 0.12 %ID/g in the series “in vivo” (Sexual gland uptake). Besides, the figures for the tissue uptake at 0.5 h in “in vivo” (Stomach uptake), in the series “in vivo” (Thyroid uptake) and in “in vivo” (Tumor uptake) were 0.49 ± 0.31 %ID/g, 0.88 ± 0.13 %ID/g and 1.2 ± 0.24 %ID/g, respectively. The tissue uptake at 1 h in the series “in vivo” (Fat uptake) amounted to 0.18 ± 0.1 %ID/g; in “in vivo” (Gut uptake) it was 0.13 ± 0.07 %ID/g; in “in vivo” (Kidney uptake), 4.55 ± 1.38 %ID/g; in “in vivo” (Muscle uptake) it was 0.08 ± 0.04 %ID/g; in “in vivo” (Pancreas uptake), 0.16 ± 0.14 %ID/g; in the series “in vivo” (Sexual gland uptake), 0.05 ± 0.03 %ID/g. The tissue uptake at 1 h was 0.21 ± 0.19 %ID/g in the series “in vivo” (Stomach uptake), 0.16 ± 0.07 %ID/g in “in vivo” (Thyroid uptake) and 0.75 ± 0.25 %ID/g in the series “in vivo” (Tumor uptake). Further, the tissue uptake at 2 h is 0.12 ± 0.07 %ID/g in the series “in vivo” (Fat uptake); 0.12 ± 0.07 %ID/g in the series “in vivo” (Gut uptake); 4.72 ± 0.31 %ID/g in “in vivo” (Kidney uptake); 0.21 ± 0.08 %ID/g in the series “in vivo” (Muscle uptake); 0.09 ± 0.06 %ID/g in the series “in vivo” (Pancreas uptake); 0.09 ± 0.02 %ID/g in “in vivo” (Sexual gland uptake). Also, the results for the tissue uptake at 2 h in “in vivo” (Stomach uptake), in “in vivo” (Thyroid uptake) and in the series “in vivo” (Tumor uptake) were 0.07 ± 0.02 %ID/g, 0.3 ± 0.16 %ID/g and 0.27 ± 0.14 %ID/g, respectively. Also, the “change of tumor tissue uptake after pre-injection of excess C6” value in the series on SKOV3 tumor-bearing mice (SKOV3 tumor-bearing mice, C6 10 mg/kg pre-block versus non-blocked, 60 min PI, P < 0.05) is recorded as “marked reduction”. In addition, in the series with SKOV3 tumor-bearing mice (mouse, in vivo), the “uptake ratio of tumor-to-blood” value is recorded as greater than 2 fold. Besides, the “tumor detection via PET” value in the series with PC3 tumors is “detected”. In addition, the radioactive degradation products entry in series [1] is reported as “absence”. In addition, the “radioactivity in the form of [18F]AlF-NOTA-C6” value in series [1] (physiological saline, room temperature, 4 h incubation, radio-HPLC) is greater than 95%.
Turning to “c(Lys-Ala-His-Trp-Gly-Phe-Thr-Leu-Asp)NH2 (sidechain bridge or staple) [C6]”, the “increase in gelatinase inhibition relative to CTT” value in the series on gelatinase is reported as 4 fold.

By tissue uptake is commonly meant the share of the injected amount in each gram of the tissue.
